Results published in publication PMC10706732.

Target: Human ceruloplasmin (human) (UniProt P00450)
Test: SPR; Biacore X100; human CP immobilised on CM5 chip by EDC/NHS (3.3 ng/mm2); LF or LF/8OA as analyte in HBS-P+ (150 mM NaCl, 10 mM Hepes pH 7.5, 0.05% polyoxyethylene sorbitan), 30 uL/min; 1:1 Langmuir model

Sequence of UniProt P00450 (P00450 20-1065): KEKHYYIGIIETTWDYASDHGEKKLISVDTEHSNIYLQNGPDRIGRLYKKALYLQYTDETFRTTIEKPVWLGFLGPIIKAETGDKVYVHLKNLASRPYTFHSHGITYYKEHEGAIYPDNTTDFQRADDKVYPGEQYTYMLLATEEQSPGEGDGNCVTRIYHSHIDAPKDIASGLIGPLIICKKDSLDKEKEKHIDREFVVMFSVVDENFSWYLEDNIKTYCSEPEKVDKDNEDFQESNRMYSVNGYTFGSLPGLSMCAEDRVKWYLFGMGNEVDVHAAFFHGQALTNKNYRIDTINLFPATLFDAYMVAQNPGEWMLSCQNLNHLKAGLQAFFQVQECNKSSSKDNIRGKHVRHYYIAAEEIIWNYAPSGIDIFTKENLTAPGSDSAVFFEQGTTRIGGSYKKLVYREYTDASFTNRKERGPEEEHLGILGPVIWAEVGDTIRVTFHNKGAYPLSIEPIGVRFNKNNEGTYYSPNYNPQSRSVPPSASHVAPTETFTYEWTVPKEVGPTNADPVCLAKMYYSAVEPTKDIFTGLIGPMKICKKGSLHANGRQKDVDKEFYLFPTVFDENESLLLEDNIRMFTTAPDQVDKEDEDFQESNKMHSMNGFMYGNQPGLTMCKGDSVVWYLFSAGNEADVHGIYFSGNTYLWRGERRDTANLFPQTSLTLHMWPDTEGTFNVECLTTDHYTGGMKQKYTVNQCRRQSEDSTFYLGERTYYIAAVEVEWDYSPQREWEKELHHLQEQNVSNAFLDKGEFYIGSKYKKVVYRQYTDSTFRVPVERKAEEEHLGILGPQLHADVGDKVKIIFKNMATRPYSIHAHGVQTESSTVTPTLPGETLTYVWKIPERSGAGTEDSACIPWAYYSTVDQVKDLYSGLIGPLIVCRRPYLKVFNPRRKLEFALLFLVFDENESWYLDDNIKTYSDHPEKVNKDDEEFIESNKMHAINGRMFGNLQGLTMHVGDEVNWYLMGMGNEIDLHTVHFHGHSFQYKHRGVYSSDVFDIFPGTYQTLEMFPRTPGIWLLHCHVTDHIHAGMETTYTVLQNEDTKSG

In the case of “Complex formed by one human lactoferrin molecule and eight molecules of oleic acid”, the Kd is reported as 407 nM.
With “Recombinant human lactoferrin (natural protein)” the Kd was 367 nM.
